# Results as given in publication PMC6716341 (ACS Central Science, 2019).
# Legend:
# [1] = In vitro aging: isomerization of Asp1 and Asp7; assay type: physicochemical; settings: from the rates in Figure 4
# SH-SY5Y = settings: incubated with SH-SY5Y cells; cited from earlier work
# SK-N-SH = settings: incubated with SK-N-SH cells; cited from earlier work
# NSC-hTERT = settings: incubated with NSC-hTERT cells; cited from earlier work
substance,measurement,setting,value
Aβ: amyloid beta in general; isomerization estimated from the measured rates,degree of isomerization within a 30 h time frame,[1],~0.2%
isomerized Aβ1–42: isomerized Aβ1–42 studied by Makarov and co-workers,toxicity relative to canonical form,SH-SY5Y,more toxic than the canonical form
same,toxicity relative to canonical form,SK-N-SH,more toxic than the canonical form
same,toxicity relative to canonical form,NSC-hTERT,more toxic than the canonical form
